Measurements: US20100272750A1

molecular target: HLA A2302 (human); assay: 125I-probe competition, purified HLA

| Binder | IC50 [nM] |
| --- | --- |
| VFTFPHAFPF (modifications not checked) [HPV45.E1.578] | 15.9 |
| PYLHSRLVVF (modifications not checked) [HPV31.E1.557] | 2.8 |
| VYVFCFLLPM (modifications not checked) [HPV18.E5.52] | 57 |
| VFTFPNPFPF (modifications not checked) [HPV31.E1.565] | 12 |
| VVFIYIPLF (modifications not checked) [HPV31.E5.64] | 108 |
| SYFGMSFIHF (modifications not checked) [HPV18/45.E1.491] | 4.3 |
| YYMTDAGTW (modifications not checked) [HPV18.E2.142] | 14 |
| VYQFAFKDL (modifications not checked) [HPV45.E6.44] | 1.1 |
| FYSKVSEFRW (modifications not checked) [HPV31.E6.69] | 8.8 |

molecular target: HLA A2902 (human); assay: 125I-probe competition, purified HLA

| Binder | IC50 [nM] |
| --- | --- |
| VFTFPHAFPF (modifications not checked) [HPV45.E1.578] | 57 |
| PYLHSRLVVF (modifications not checked) [HPV31.E1.557] | 4360 |
| AFTDLTIVY (modifications not checked) [HPV31.E6.46] | 36 |
| LSQMVQWAY (modifications not checked) [HPV16/31.E1.357] | 122 |
| VYVFCFLLPM (modifications not checked) [HPV18.E5.52] | 5280 |
| VFTFPNPFPF (modifications not checked) [HPV31.E1.565] | 603 |
| VVFIYIPLF (modifications not checked) [HPV31.E5.64] | 302 |
| ATCVSHRGLY (modifications not checked) [HPV18.E2.154] | 4210 |
| GTGCNGWFY (modifications not checked) [HPV18/31.E1.11] | 116 |
| ELDPVDLLCY (modifications not checked) [HPV45.E7.20] | 4290 |
| VMDDSEIAY (modifications not checked) [HPV31.E1.349] | 95 |
| QVDYYGLYY (modifications not checked) [HPV16.E2.151] | 25 |
| LSSALEIPY (modifications not checked) [HPV31.E6.15] | 261 |
| SYFGMSFIHF (modifications not checked) [HPV18/45.E1.491] | 62 |
| YYMTDAGTW (modifications not checked) [HPV18.E2.142] | 3410 |
| NTGILTVTY (modifications not checked) [HPV45.E2.332] | 1400 |
| FYSKVSEFRW (modifications not checked) [HPV31.E6.69] | 1780 |

molecular target: HLA A0301 (human); assay: 125I-probe competition, purified HLA

| Binder | IC50 [nM] |
| --- | --- |
| KVSEFRWYRY (modifications not checked) [HPV31.E6.72] | 213 |
| STAAALYWYR (modifications not checked) [HPV31.E1.294] | 198 |
| VVLLLVRYK (modifications not checked) [HPV16.E1.274] | 6.3 |

molecular target: HLA A2402 (human); assay: 125I-probe competition, purified HLA

| Binder | IC50 [nM] |
| --- | --- |
| VFTFPHAFPF (modifications not checked) [HPV45.E1.578] | 90.4 |
| PYLHSRLVVF (modifications not checked) [HPV31.E1.557] | 38.7 |
| VYVFCFLLPM (modifications not checked) [HPV18.E5.52] | 178 |
| VFTFPNPFPF (modifications not checked) [HPV31.E1.565] | 17 |
| VVFIYIPLF (modifications not checked) [HPV31.E5.64] | 276 |
| SYFGMSFIHF (modifications not checked) [HPV18/45.E1.491] | 17.5 |
| YYMTDAGTW (modifications not checked) [HPV18.E2.142] | 3.2 |
| VYQFAFKDL (modifications not checked) [HPV45.E6.44] | 4 |
| FYSKVSEFRW (modifications not checked) [HPV31.E6.69] | 4.5 |

molecular target: HLA A3301 (human); assay: 125I-probe competition, purified HLA

| Binder | IC50 [nM] |
| --- | --- |
| KVSEFRWYRY (modifications not checked) [HPV31.E6.72] | 338 |
| STAAALYWYR (modifications not checked) [HPV31.E1.294] | 47 |
| VVLLLVRYK (modifications not checked) [HPV16.E1.274] | 6.1 |

molecular target: HLA A3101 (human); assay: 125I-probe competition, purified HLA

| Binder | IC50 [nM] |
| --- | --- |
| KVSEFRWYRY (modifications not checked) [HPV31.E6.72] | 3 |
| STAAALYWYR (modifications not checked) [HPV31.E1.294] | 5.6 |
| VVLLLVRYK (modifications not checked) [HPV16.E1.274] | 0.1 |

molecular target: HLA A0101 (human); assay: 125I-probe competition, purified HLA

| Binder | IC50 [nM] |
| --- | --- |
| AFTDLTIVY (modifications not checked) [HPV31.E6.46] | 31 |
| LSQMVQWAY (modifications not checked) [HPV16/31.E1.357] | 21 |
| ATCVSHRGLY (modifications not checked) [HPV18.E2.154] | 421 |
| GTGCNGWFY (modifications not checked) [HPV18/31.E1.11] | 136 |
| ELDPVDLLCY (modifications not checked) [HPV45.E7.20] | 26 |
| VMDDSEIAY (modifications not checked) [HPV31.E1.349] | 18 |
| QVDYYGLYY (modifications not checked) [HPV16.E2.151] | 2.7 |
| LSSALEIPY (modifications not checked) [HPV31.E6.15] | 35 |
| NTGILTVTY (modifications not checked) [HPV45.E2.332] | 337 |

molecular target: HLA A3002 (human); assay: 125I-probe competition, purified HLA

| Binder | IC50 [nM] |
| --- | --- |
| PYLHSRLVVF (modifications not checked) [HPV31.E1.557] | 2230 |
| AFTDLTIVY (modifications not checked) [HPV31.E6.46] | 71 |
| LSQMVQWAY (modifications not checked) [HPV16/31.E1.357] | 0.93 |
| VVFIYIPLF (modifications not checked) [HPV31.E5.64] | 268 |
| ATCVSHRGLY (modifications not checked) [HPV18.E2.154] | 28 |
| GTGCNGWFY (modifications not checked) [HPV18/31.E1.11] | 9.1 |
| VMDDSEIAY (modifications not checked) [HPV31.E1.349] | 2550 |
| QVDYYGLYY (modifications not checked) [HPV16.E2.151] | 160 |
| LSSALEIPY (modifications not checked) [HPV31.E6.15] | 175 |
| SYFGMSFIHF (modifications not checked) [HPV18/45.E1.491] | 1540 |
| YYMTDAGTW (modifications not checked) [HPV18.E2.142] | 2150 |
| NTGILTVTY (modifications not checked) [HPV45.E2.332] | 8720 |
| VYQFAFKDL (modifications not checked) [HPV45.E6.44] | 165 |
| FYSKVSEFRW (modifications not checked) [HPV31.E6.69] | 1360 |

molecular target: HLA A6801 (human); assay: 125I-probe competition, purified HLA

| Binder | IC50 [nM] |
| --- | --- |
| KVSEFRWYRY (modifications not checked) [HPV31.E6.72] | 192 |
| STAAALYWYR (modifications not checked) [HPV31.E1.294] | 12 |
| VVLLLVRYK (modifications not checked) [HPV16.E1.274] | 76 |

molecular target: HLA A1101 (human); assay: 125I-probe competition, purified HLA

| Binder | IC50 [nM] |
| --- | --- |
| KVSEFRWYRY (modifications not checked) [HPV31.E6.72] | 25 |
| STAAALYWYR (modifications not checked) [HPV31.E1.294] | 10 |
| VVLLLVRYK (modifications not checked) [HPV16.E1.274] | 4.1 |

molecular target: HLA A2601 (human); assay: 125I-probe competition, purified HLA

| Binder | IC50 [nM] |
| --- | --- |
| LSQMVQWAY (modifications not checked) [HPV16/31.E1.357] | 6450 |
| ATCVSHRGLY (modifications not checked) [HPV18.E2.154] | 646 |
| GTGCNGWFY (modifications not checked) [HPV18/31.E1.11] | 3080 |
| ELDPVDLLCY (modifications not checked) [HPV45.E7.20] | 2110 |
| QVDYYGLYY (modifications not checked) [HPV16.E2.151] | 251 |
| LSSALEIPY (modifications not checked) [HPV31.E6.15] | 4110 |
| NTGILTVTY (modifications not checked) [HPV45.E2.332] | 3150 |
